This is an account of results in US20250026846A1 (JCR PHARMACEUTICALS, published 2025).

Read-outs that look alike come from different tables or passages of the source.

B1: humanized anti-hTfR antibody No. 3N (antibody, human IgG1, kappa, V domains shown)
VH: EVQLVQSGAEVKKPGESLKISCKGSGYSFMNYWLGWVRQMPGKGLEWMGDIYPGGDYPTYSEKFKVQVTISADKSISTAYLQLSSLKASDTAMYYCARSGNYDEVAYWGQGTLVTVSS
VL: DIVMTQTPLSLSVTPGQPASISCRSSQSLVHSNGNTYLHWYLQKPGQSPQLLIYKVSNRFSGVPDRFSGSGSGTDFTLKISRVEAEDVGVYYCSQSTHVPWTFGQGTKVEIKR
notes: IgG1; also called Humanized anti-hTfR antibody 3N
B2: recombinant monkey TfR (r monkey TfR: Sino Biological Inc.), crab-eating monkey TfR extracellular region with a histidine tag at the N-terminus (receptor)
chain: CKGVEPKTECERLAGTESPAREEPEEDFPAAPRLYWDDLKRKLSEKLDTTDFTSTIKLLNENLYVPREAGSQKDENLALYIENQFREFKLSKVWRDQHFVKIQVKDSAQNSVIIVDKNGGLVYLVENPGGYVAYSKAATVTGKLVHANFGTKKDFEDLDSPVNGSIVIVRAGKITFAEKVANAESLNAIGVLIYMDQTKFPIVKADLSFFGHAHLGTGDPYTPGFPSFNHTQFPPSQSSGLPNIPVQTISRAAAEKLFGNMEGDCPSDWKTDSTCKMVTSENKSVKLTVSNVLKETKILNIFGVIKGFVEPDHYVVVGAQRDAWGPGAAKSSVGTALLLKLAQMFSDMVLKDGFQPSRSIIFASWSAGDFGSVGATEWLEGYLSSLHLKAFTYINLDKAVLGTSNFKVSASPLLYTLIEKTMQDVKHPVTGRSLYQDSNWASKVEKLTLDNAAFPFLAYSGIPAVSFCFCEDTDYPYLGTTMDTYKELVERIPELNKVARAAAEVAGQFVIKLTHDTELNLDYERYNSQLLLFLRDLNQYRADVKEMGLSLQWLYSARGDFFRATSRLTTDFRNAEKRDKFVMKKLNDRVMRVEYYFLSPYVSPKESPFRHVFWGSGSHTLSALLESLKLRRQNNSAFNETLFRNQLALATWTIQGAANALSGDVWDIDNEF
notes: Bought from Sino Biological; also called r monkey TfR-ECD (Histag); not shown: histidine tag at the N-terminus
B3: anti-hTfR antibody No. 3 (mouse antibody produced by hybridoma Clone 3 line) (antibody, V domains shown)
VH: EVQLQESGAELVRPGTSVKISCKASGYSFTNYWLGWVKQRPGHGLEWIGDIYPGGDYPTYSEKFKVKAILTADTSSSSVYLHLSSLTSEDSAVYFCARSGNYDEVAYWGQGTLVTVST
VL: DIVMTQTTLSLPVSLGDQASISCRSSQSLVHSNGNTYLHWYLQKPGQSPKLLIYKVSNRFSGVPDRFSGSGSGTDFTLKISRVEAEDLGVFFCSQSTHVPWTFGGGTKLEIKR
notes: Whole mouse antibody purified from hybridoma supernatant on Protein G; also called mouse anti-hTfR antibody No. 3; pre-humanized anti-hTfR antibody

Experiment [1] has as its target T1, recombinant human TfR (r human TfR: Sino Biological Inc.), hTfR extracellular region with a histidine tag at … (human, UniProt P02786 89-760).
T1 construct: Bought from Sino Biological; also called r human TfR-ECD (Histag); recombinant hTfR; not shown: histidine tag at the N-terminus
The experiment is described as follows: BLI (Octet RED96), His-tagged TfR ECD on Ni-NTA sensor. As to the method: (§1) Each of the sample solutions prepared above by 2-fold dilution steps was added, 200 μL/well, to a 96-well plate, black (Greiner Bio-One Inc.). Each of the r human TfR-ECD (Histag) solution and the r monkey TfR-ECD (Histag) solutions prepared above was added, 200 μL/well, to predetermined wells. To respective wells for baseline, dissociation and washing were added HBS-P+, 200 μL/well. To wells for regeneration were added 10 mM Glycine-HCl (pH 1.7), 200 μL/well. To wells for activation was added 0.5 mM NiCl₂ solution, 200 μL/well. The plate and biosensor (Biosensor/Ni-NTA: ForteBio Inc., a division of Pall Corporation) were set in the prescribed positions of Octet RED96.
(§2) The measurement was performed at 25 to 30° C.
The affinity of humanized anti-hTfR antibody No. 3 obtained in Example 13 and humanized anti-hTfR antibody No. 3N obtained in Example 17 to […] was measured by the method described in Example 7. […] Besides, the measurement indicating the affinity of humanized anti-hTfR antibody No. 3 to human TfR differed from that shown in Table 6, but is an experimental error.

For experiment [2], the target named is B2. The description is as above. As to the method:
as §1, §2
The affinity of humanized anti-hTfR antibody No. 3 obtained in Example 13 and humanized anti-hTfR antibody No. 3N obtained in Example 17 to human TfR and monkey TfR was measured by the method described in Example 7. […] Besides, the measurement indicating the affinity of humanized anti-hTfR antibody No. 3 to monkey TfR differed from that shown in Table 7, but is an experimental error.

Experiment [3] addresses B2. The experiment in a line: BLI (Octet RED96).
The target in experiment [4] is T2, Fab GS-GAA (fusion protein between Fab anti-hTfR antibody 3N and hGAA).
T2 construct: also called Fab GS3-GAA; Fab-GS3-GAA
The experiment in a line: BLI (Octet RED96), His-tagged TfR ECD on Ni-NTA sensor; Table 21, Fab-GS3-GAA. A general note: In BLI a coated tip is dipped into the sample, and binding shifts an interference pattern.

For experiment [5], the target named is hGAA-anti-hTfR antibody 3N (IgG4). The experiment is described as follows: BLI (Octet RED96), His-tagged TfR ECD on Ni-NTA sensor. As to the method: as §1, §2
(§3) The affinity of the hGAA-anti-hTfR antibody 3N (IgG4) obtained in Example 26 to human TfR and monkey TfR was measured in accordance with the method described in Example 23.

Experiment [6] has as its target T2, Fab GS-GAA (fusion protein between Fab …). The description is as above. As to the method:
as §1, §2, §3

Experiment [7] has the same target. The experiment in a line: BLI (Octet RED96), His-tagged TfR ECD on Ni-NTA sensor; Table 17-2, Fab GS-GAA.
Experiment [8] deals with B2. The experiment is described as follows: BLI (Octet RED96), His-tagged TfR ECD on Ni-NTA sensor. As to the method: (§4) The purified product of anti-hTfR antibody No. 3 was subjected to 2-fold dilution steps with HBS-P+ (10 mM HEPES containing 150 mM NaCl, 50 μM EDTA and 0.05% Surfactant P20) to prepare antibody solutions of 7 different concentrations, 0.78125 to 50 nM (0.117 to 7.5 μg/mL). The antibody solution was used as the sample solution. The r human and r monkey TfRs were respectively diluted with HBS-P+ to prepare 25 μg/mL solutions, which were used as r human TfR-ECD (Histag) solution and r monkey TfR-ECD (Histag) solution, respectively.
as §1, §2

Experiment [9] concerns the target T1, recombinant human TfR (r human TfR: …). Described as above. As to the method: as §4, §1, §2
The source holds these as a separate data set.

T2 sequence (light, as listed by the source, chain 1 of 2): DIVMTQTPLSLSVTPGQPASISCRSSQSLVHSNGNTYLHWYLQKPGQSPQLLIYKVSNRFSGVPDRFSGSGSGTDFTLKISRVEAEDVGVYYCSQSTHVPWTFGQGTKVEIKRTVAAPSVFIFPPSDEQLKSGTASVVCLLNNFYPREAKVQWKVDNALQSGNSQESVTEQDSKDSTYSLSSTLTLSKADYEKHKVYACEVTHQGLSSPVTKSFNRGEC
T2 sequence (heavy, as listed by the source, chain 2 of 2): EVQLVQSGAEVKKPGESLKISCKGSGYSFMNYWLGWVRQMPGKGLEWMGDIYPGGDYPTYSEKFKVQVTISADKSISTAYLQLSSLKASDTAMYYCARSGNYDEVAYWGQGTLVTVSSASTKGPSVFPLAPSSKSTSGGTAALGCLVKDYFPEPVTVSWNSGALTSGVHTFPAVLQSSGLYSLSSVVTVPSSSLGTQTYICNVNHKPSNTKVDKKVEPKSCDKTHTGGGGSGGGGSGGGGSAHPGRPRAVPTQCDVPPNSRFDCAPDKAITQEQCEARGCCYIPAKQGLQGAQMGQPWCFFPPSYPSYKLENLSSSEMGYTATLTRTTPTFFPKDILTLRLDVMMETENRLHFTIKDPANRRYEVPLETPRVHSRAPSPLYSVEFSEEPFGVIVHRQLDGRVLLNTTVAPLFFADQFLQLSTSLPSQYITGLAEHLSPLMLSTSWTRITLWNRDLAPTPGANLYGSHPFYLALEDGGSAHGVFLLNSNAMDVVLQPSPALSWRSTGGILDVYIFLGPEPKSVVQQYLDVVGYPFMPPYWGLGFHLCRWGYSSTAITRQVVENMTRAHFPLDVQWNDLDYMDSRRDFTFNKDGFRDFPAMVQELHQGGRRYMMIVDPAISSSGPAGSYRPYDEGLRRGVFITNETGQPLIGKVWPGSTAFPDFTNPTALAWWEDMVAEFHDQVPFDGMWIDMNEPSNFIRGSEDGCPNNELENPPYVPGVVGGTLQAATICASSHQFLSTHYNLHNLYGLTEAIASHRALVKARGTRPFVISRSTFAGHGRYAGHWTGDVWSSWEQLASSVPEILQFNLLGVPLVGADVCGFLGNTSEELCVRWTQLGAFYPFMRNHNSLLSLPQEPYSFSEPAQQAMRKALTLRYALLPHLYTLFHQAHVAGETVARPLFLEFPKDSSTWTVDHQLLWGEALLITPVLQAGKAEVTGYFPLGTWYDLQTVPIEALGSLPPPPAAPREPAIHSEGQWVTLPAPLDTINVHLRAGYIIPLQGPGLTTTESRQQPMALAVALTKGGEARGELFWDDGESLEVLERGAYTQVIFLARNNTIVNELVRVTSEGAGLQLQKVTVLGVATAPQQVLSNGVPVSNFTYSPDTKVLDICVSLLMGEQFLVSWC
Sequence of hGAA-anti-hTfR antibody 3N (IgG4) (light, as listed by the source, chain 1 of 2): as the sequence (light, as listed by the source, chain 1 of 2) above
Sequence of hGAA-anti-hTfR antibody 3N (IgG4) (heavy, as listed by the source, chain 2 of 2): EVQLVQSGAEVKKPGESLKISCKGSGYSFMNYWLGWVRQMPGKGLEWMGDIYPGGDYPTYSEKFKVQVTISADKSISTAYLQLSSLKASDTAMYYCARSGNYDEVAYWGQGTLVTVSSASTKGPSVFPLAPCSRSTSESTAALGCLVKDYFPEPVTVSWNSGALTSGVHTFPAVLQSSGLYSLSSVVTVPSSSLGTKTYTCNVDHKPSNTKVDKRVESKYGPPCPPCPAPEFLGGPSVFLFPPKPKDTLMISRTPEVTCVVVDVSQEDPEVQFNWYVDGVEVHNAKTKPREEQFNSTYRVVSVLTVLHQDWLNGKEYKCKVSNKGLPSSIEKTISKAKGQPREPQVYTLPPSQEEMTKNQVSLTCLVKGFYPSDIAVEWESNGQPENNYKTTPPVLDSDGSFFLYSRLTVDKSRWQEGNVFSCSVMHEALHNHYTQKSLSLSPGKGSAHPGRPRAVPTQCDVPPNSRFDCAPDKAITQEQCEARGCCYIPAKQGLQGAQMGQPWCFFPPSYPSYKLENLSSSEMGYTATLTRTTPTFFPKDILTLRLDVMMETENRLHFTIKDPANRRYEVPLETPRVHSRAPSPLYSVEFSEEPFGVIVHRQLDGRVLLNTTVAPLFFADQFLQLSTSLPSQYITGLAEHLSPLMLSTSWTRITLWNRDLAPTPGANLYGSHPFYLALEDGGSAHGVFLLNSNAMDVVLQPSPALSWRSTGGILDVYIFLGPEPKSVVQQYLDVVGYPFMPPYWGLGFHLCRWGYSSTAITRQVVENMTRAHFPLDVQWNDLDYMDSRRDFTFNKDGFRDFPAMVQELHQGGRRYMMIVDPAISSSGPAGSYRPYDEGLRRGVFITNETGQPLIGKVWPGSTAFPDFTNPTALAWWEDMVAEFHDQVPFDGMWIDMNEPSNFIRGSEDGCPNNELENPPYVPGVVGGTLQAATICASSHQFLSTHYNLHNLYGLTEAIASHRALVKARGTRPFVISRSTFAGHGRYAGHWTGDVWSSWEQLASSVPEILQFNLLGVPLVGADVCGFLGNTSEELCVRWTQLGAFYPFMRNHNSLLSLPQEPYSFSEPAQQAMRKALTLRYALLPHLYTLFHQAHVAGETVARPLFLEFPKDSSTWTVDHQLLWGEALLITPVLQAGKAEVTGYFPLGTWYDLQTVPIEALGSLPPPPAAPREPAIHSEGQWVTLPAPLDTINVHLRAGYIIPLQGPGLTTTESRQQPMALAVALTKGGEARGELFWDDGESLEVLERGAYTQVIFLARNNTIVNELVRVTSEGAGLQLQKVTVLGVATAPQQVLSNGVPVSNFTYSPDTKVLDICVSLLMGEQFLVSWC

The Kd is the concentration at which binding is half-saturated. One may read the koff as a measure of how fast the partners let go of each other. For orientation: kon means a measure of how fast the partners come together. B1: in [1], the Kd was < 0.001 nM, the koff is < 1e-07 s⁻¹ and the kon stood at 784000 M⁻¹ s⁻¹. Also, in [2], the dissociation constant (Kd) was found to be 0.0507 nM, the off-rate constant (koff) is 1.96e-05 s⁻¹ and the association rate constant (kon) worked out at 386000 M⁻¹ s⁻¹. Also, in experiment [3], the “KD relative to that of humanized anti-hTfR antibody No. 3” value is ~0.033 fold and the “fold affinity against humanized anti-hTfR antibody No. 3” value was ~30 fold.

In the case of B2, the Kd was 30.5 nM in experiment [4], < 0.001 nM in experiment [5] and 15.2 nM in experiment [7]. Also, the off-rate (koff) is 0.0145 s⁻¹ in [4], < 1e-07 s⁻¹ in [5] and 0.00501 s⁻¹ in experiment [6]. Also, the kon was 473000 M⁻¹ s⁻¹ in experiment [4], 203000 M⁻¹ s⁻¹ in experiment [5] and 329000 M⁻¹ s⁻¹ in experiment [6].

Take B3: in [8], the Kd was < 0.001 nM, the dissociation rate constant (koff) was < 1e-07 s⁻¹ and the kon stood at 389000 M⁻¹ s⁻¹. In [9], the Kd is < 0.001 nM, the koff is < 1e-07 s⁻¹ and the kon worked out at 653000 M⁻¹ s⁻¹.
